Source: the RNAGym collection of RNA variant scans (doi:10.1073/pnas.2313332121)

B1: TPR t1 (parent)
chain: GACCAAUCUGCCCUCAGAGCUCGAGAACAUCUUCGGAUGCAGAGGAGGCAGGCUUCGGUGGCGCGAUAGCGCCAACGUCCUCAACCUCCAAUGCAUCCCACCACAUGAUGAUGCCUGAAGAGCCUUGGUUUUUUG

Variants of: B1
Experiment: polymerase ribozyme fitness, log enrichment relative to wild type (log ratio); higher = more active; in vitro selection for triplet polymerase activity
Procedure, shortened: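 A heterodimeric triplet polymerase ribozyme had each of its subunits mutagenized by PCR into a library, which was transcribed. One round of in vitro selection, done in triplicate, annealed each library with a biotinylated primer, its partner subunit and triplets, then incubated it frozen at −7 °C before gel excision of extended constructs, streptavidin-bead capture and RT-PCR. Fitness is the logarithm of genotype enrichment relative to wild-type enrichment, based on Illumina sequencing of inputs and outputs and inverse-variance-weighted replicate averages. A base-2 logarithm is used, and genotypes were kept only with ≥10 input reads and ≥1 read per output.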
For G60C U133A, the “polymerase ribozyme fitness (log ratio)” value was -0.621.
In the case of G61A C73U C76U, the “polymerase ribozyme fitness (log ratio)” value is reported as -3.66.
For G60C C94G U96A A103C, the “polymerase ribozyme fitness (log ratio)” value was -6.59.
With G61A A91C U96A the “polymerase ribozyme fitness (log ratio)” value was -1.49.
In the case of G61C U131A, the “polymerase ribozyme fitness (log ratio)” value is reported as -2.31.
For G61A U81A C82A C98U, the “polymerase ribozyme fitness (log ratio)” value was -1.55.
With G61U C79A C102U the “polymerase ribozyme fitness (log ratio)” value was -3.26.
With G61A A84U G93C G128A the “polymerase ribozyme fitness (log ratio)” value was -3.36.
For G61U A111U, the “polymerase ribozyme fitness (log ratio)” value was -1.75.
For G61C C114U G127U, the “polymerase ribozyme fitness (log ratio)” value was -5.3.
With G61A U92C C114A the “polymerase ribozyme fitness (log ratio)” value was -2.51.
With G61A C99U G113C the “polymerase ribozyme fitness (log ratio)” value was -5.29.
In the case of G61C C73G U134G G135C, the “polymerase ribozyme fitness (log ratio)” value is reported as -1.75.
For G60U U129A, the “polymerase ribozyme fitness (log ratio)” value was -1.37.
With G61A G71A the “polymerase ribozyme fitness (log ratio)” value was -2.39.
For G61A U78C C88G, the “polymerase ribozyme fitness (log ratio)” value was -0.472.
With G61C U81A the “polymerase ribozyme fitness (log ratio)” value was -3.2.
For G61C C80U G120U, the “polymerase ribozyme fitness (log ratio)” value was -7.22.
In the case of G61A G77A, the “polymerase ribozyme fitness (log ratio)” value is reported as -1.19.
For G60U G113U, the “polymerase ribozyme fitness (log ratio)” value was -2.04.
With G60U G113A the “polymerase ribozyme fitness (log ratio)” value was -0.847.
With G61C G107U the “polymerase ribozyme fitness (log ratio)” value was -7.35.
In the case of G61A C98U C114A, the “polymerase ribozyme fitness (log ratio)” value is reported as -2.26.
With G61A U81G A84G A91G A111G the “polymerase ribozyme fitness (log ratio)” value was -4.48.
In the case of G61A C89G G93A, the “polymerase ribozyme fitness (log ratio)” value is reported as -2.18.
In the case of G60U U112C, the “polymerase ribozyme fitness (log ratio)” value is reported as 1.
For G60U G61A U78G A84U C86A, the “polymerase ribozyme fitness (log ratio)” value was -3.37.
In the case of G60U U132C, the “polymerase ribozyme fitness (log ratio)” value is reported as -0.354.
For G61C C72U, the “polymerase ribozyme fitness (log ratio)” value was 0.273.
In the case of G60C U112G C124A, the “polymerase ribozyme fitness (log ratio)” value is reported as -0.118.
For G60U U78C A90C G117U, the “polymerase ribozyme fitness (log ratio)” value was -4.13.
In the case of G61A U96G U130C, the “polymerase ribozyme fitness (log ratio)” value is reported as -0.371.
In the case of G60C U132A, the “polymerase ribozyme fitness (log ratio)” value is reported as -0.171.
For G61C U87A G110C, the “polymerase ribozyme fitness (log ratio)” value was -5.84.
With G61C A105U the “polymerase ribozyme fitness (log ratio)” value was -3.67.
With G61C A105C the “polymerase ribozyme fitness (log ratio)” value was -4.76.
With G60U C80U U106G U129G the “polymerase ribozyme fitness (log ratio)” value was -6.15.
With G61C C115G the “polymerase ribozyme fitness (log ratio)” value was -4.37.
For G61U A74G G93U G117U, the “polymerase ribozyme fitness (log ratio)” value was -5.63.
With G61U C62U the “polymerase ribozyme fitness (log ratio)” value was -3.5.
In the case of G60U C89A A111C C114A, the “polymerase ribozyme fitness (log ratio)” value is reported as -4.37.
In the case of G61U A83U A91C U96A, the “polymerase ribozyme fitness (log ratio)” value is reported as -1.27.
In the case of G60U G61A A91U, the “polymerase ribozyme fitness (log ratio)” value is reported as -2.61.
For G61A C88U G113A G128U, the “polymerase ribozyme fitness (log ratio)” value was -2.99.
With G60C C98U the “polymerase ribozyme fitness (log ratio)” value was -0.75.
For G60U U112G A121G U133A U134A, the “polymerase ribozyme fitness (log ratio)” value was 1.66.
With G61A A84U the “polymerase ribozyme fitness (log ratio)” value was -0.89.
With G60U C89U U106A the “polymerase ribozyme fitness (log ratio)” value was -0.38.
With G61A U125G the “polymerase ribozyme fitness (log ratio)” value was -0.638.
With G61U A84G G93U G120U the “polymerase ribozyme fitness (log ratio)” value was -0.773.
For G60U A91C G93U C104A G117U, the “polymerase ribozyme fitness (log ratio)” value was -6.
For G61C A66C, the “polymerase ribozyme fitness (log ratio)” value was -2.87.
With G61C G120U the “polymerase ribozyme fitness (log ratio)” value was -1.08.
With G61U A83C C104A C115U the “polymerase ribozyme fitness (log ratio)” value was -4.01.
For G60C G61C U81G C115U, the “polymerase ribozyme fitness (log ratio)” value was -5.37.
In the case of G61A C79U, the “polymerase ribozyme fitness (log ratio)” value is reported as -0.164.
With G61A C79G the “polymerase ribozyme fitness (log ratio)” value was -0.521.
In the case of G60C G120A, the “polymerase ribozyme fitness (log ratio)” value is reported as 0.168.
With G61C A119G the “polymerase ribozyme fitness (log ratio)” value was -0.986.
For G61C A119U, the “polymerase ribozyme fitness (log ratio)” value was -1.89.
For G60U A111C G122C, the “polymerase ribozyme fitness (log ratio)” value was -0.82.
For G61A A103U G113C, the “polymerase ribozyme fitness (log ratio)” value was -6.41.
With G60U G93A A105C the “polymerase ribozyme fitness (log ratio)” value was -3.53.
For G61U A95G C124U, the “polymerase ribozyme fitness (log ratio)” value was 1.97.
In the case of G61A G110A C114G, the “polymerase ribozyme fitness (log ratio)” value is reported as -6.32.
For G61C G128C, the “polymerase ribozyme fitness (log ratio)” value was -4.34.
For G61A U78G, the “polymerase ribozyme fitness (log ratio)” value was -0.87.
With G61A U78A the “polymerase ribozyme fitness (log ratio)” value was -0.223.
With G61C C123U the “polymerase ribozyme fitness (log ratio)” value was -0.994.
In the case of G60C G128A, the “polymerase ribozyme fitness (log ratio)” value is reported as -2.48.
For G60U C70A C114U, the “polymerase ribozyme fitness (log ratio)” value was -7.08.
In the case of G61U C82G A100C G113U, the “polymerase ribozyme fitness (log ratio)” value is reported as -5.11.
With G61C U92A the “polymerase ribozyme fitness (log ratio)” value was -4.11.
With G61A C80U A105U the “polymerase ribozyme fitness (log ratio)” value was -3.51.
For G61C C79U, the “polymerase ribozyme fitness (log ratio)” value was -1.46.
In the case of G61A G63U, the “polymerase ribozyme fitness (log ratio)” value is reported as -3.75.
With G60U C97A C123U the “polymerase ribozyme fitness (log ratio)” value was -2.62.
In the case of G61A A74U G113U, the “polymerase ribozyme fitness (log ratio)” value is reported as -4.56.
For G61C G77A, the “polymerase ribozyme fitness (log ratio)” value was -4.61.
For G61C G77U, the “polymerase ribozyme fitness (log ratio)” value was -1.86.
With G61A U129G the “polymerase ribozyme fitness (log ratio)” value was -1.24.
With G61A U129A the “polymerase ribozyme fitness (log ratio)” value was -1.11.
In the case of G61C A100U, the “polymerase ribozyme fitness (log ratio)” value is reported as -2.98.
For G61A C97G G110A, the “polymerase ribozyme fitness (log ratio)” value was -5.81.
